Laboratory results taken from patent US20120107330A1 (published 2012).
Where two headings read alike, the source gives them in different places. Ends that are not written are not given here.

Key:
[1] = target: human TNFR1 (recombinant, R&D Systems cat no. 636-R1/CF, biotinylated) (human) (UniProt P19438); test: BIAcore, human TNFR1 on SA chip, second injection after DOM1h-574-16 as competitor
[2] = target: T1, human TNFR1 (recombinant, R&D Systems cat no. 636-R1/CF, biotinylated) (human, UniProt P19438 30-211, limits assumed, biotinylated with EZ-Link NHS-LC-LC-biotin); test: BIAcore, biotinylated human TNFR1 on SA chip, purified dAb injected (concentration not given)
T1 construct: it is not tied to the BIAcore reagent; also called p55; hTNFR1
T1 sequence (looked up): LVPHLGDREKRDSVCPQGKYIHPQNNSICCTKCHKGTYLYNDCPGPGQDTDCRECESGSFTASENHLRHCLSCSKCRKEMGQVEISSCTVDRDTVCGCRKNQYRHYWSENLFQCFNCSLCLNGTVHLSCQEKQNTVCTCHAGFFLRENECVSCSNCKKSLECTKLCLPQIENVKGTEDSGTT

[3] = target: T2, peptide D5 (domain-3 peptide of human TNFR1) (human, also: biotinylated, position not given here); test: BIAcore, biotinylated peptide D5 on SA chip
T2 construct: also called peptide 2
T2 peptide: SGSGCRKNQYRHYWSENLF

[4] = target: T3, peptide A3 (negative control fragment of human TNFR1) (human, cysteine pairing not given here; also: biotinylated, position not given here); test: BIAcore, biotinylated peptide A3 on SA chip
T3 construct: also called control peptide
T3 peptide: SGSGNDCPGPGQDTDCREC

[5] = target: T4, peptide E5 (overlapping domain-3 peptide of human TNFR1) (human, also: biotinylated, position not given here); test: BIAcore, biotinylated peptide E5 on SA chip
T4 construct: also called peptide 3
T4 peptide: SGSGNQYRHYWSENLFQCF

[6] = target: T5, peptide D2 (domain-1 peptide of human TNFR1) (human, cysteine pairing not given here; also: biotinylated, position not given here); test: BIAcore, biotinylated peptide D2 on SA chip
T5 construct: also called peptide 1
T5 peptide: SGSGNSICCTKCHKGTYLY

[7] = target: T1, human TNFR1 (recombinant, R&D Systems …); test: BIAcore, human TNFR1 on SA chip
[8] = target: T1, human TNFR1 (recombinant, R&D Systems …); test: BIAcore, TNFR1 (species not given, taken as human)
[9] = target: T6, human TNFR1 on MRC-5 cells (human, UniProt P19438 30-455); test: cell-based or functional assay
T6 sequence (looked up): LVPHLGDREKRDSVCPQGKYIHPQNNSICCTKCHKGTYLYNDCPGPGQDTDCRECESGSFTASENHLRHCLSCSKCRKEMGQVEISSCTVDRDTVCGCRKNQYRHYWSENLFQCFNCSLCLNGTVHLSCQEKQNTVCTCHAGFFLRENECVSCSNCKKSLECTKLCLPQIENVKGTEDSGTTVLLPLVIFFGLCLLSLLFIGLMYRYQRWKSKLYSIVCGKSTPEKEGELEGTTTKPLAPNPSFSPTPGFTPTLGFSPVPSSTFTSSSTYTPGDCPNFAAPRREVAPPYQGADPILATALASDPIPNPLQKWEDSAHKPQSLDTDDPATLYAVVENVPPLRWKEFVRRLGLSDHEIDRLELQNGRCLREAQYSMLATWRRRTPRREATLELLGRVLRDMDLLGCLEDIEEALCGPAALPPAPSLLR

[10] = target: T7, mouse TNFR1 on L929 cells (mouse, UniProt P25118 30-454); test: cell-based or functional assay
T7 sequence (looked up): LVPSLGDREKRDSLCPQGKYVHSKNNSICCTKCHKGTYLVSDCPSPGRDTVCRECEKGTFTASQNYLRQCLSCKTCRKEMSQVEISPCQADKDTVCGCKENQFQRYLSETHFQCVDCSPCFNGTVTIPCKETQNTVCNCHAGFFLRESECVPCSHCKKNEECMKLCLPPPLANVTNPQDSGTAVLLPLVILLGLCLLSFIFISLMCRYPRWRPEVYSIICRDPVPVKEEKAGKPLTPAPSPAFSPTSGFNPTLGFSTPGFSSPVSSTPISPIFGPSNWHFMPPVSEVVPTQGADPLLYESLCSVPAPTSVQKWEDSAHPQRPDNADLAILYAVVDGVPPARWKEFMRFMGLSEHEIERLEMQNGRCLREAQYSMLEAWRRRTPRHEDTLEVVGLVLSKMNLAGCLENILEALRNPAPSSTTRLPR

[11] = target: T5, peptide D2 (domain-1 peptide of human …); test: BIAcore, biotinylated peptide D2 on SA chip
[12] = target: T4, peptide E5 (overlapping domain-3 …); test: BIAcore, biotinylated peptide E5 on SA chip
[13] = target: T2, peptide D5 (domain-3 peptide of human …); test: BIAcore, biotinylated peptide D5 on SA chip
[14] = target: T8, TNFR1-Fc fusion (R&D Systems Cat #372-RI) (human, UniProt P19438 30-211); test: receptor binding assay: TNFR1-Fc on anti-IgG beads, dAb titrated, blocked ligand TNFα detected with biotinylated anti-TNFα and fluorescent streptavidin (FMAT)
T8 construct: range 30-211; also called TNFR1-containing beads; not shown: Human IgG1 (Pro100-Lys330)
Description: The potency of the dAbs was determined against human TNFR1 in a receptor binding assay. This assay measures the binding of TNF-alpha to TNFR1 and the ability of soluble dAb to block this interaction. The TNFR1-Fc fusion (R&D Systems, Cat#372-RI.) is captured on a bead pre-coated with goat anti-human IgG (Spherotech, Cat#HUP-60-S). The receptor coated beads are incubated with TNF-alpha (10 ng/ml, Peprotech Cat#300-01A), dAb, biotin conjugated anti-TNF-alpha (Hycult Biotechnology Cat#HM2027.) and streptavidin Alexa Fluor 647 (Molecular Probes, (Invitrogen) Cat#32357) in a black sided clear bottomed 384 well plate. After 6 hours the plate is read on the ABI 8200 Cellular Detection system and bead associated fluorescence determined. If the dAb blocks TNF-alpha binding to TNFR1 the fluorescent intensity will be reduced.

[15] = target: T3, peptide A3 (negative control fragment …); test: BIAcore, biotinylated peptide A3 on SA chip
[16] = target: T8, TNFR1-Fc fusion (R&D Systems Cat …); test: receptor binding assay: TNFR1-Fc on beads incubated with the dAb, then with TNFα (blocked ligand); % inhibition of TNFα binding to TNFR1

“mAb Clone 4.12 (Invitrogen, cat. no. Zymed 33-0100) (antibody)” was tested. Which decrease of binding (RUs) in the presence of the competitor [1] did it give?
The decrease of binding (RUs) in the presence of the competitor was 20%.

B1: DOM1h-549 (other)
VH: EVQLLESGGGLVQPGGSLRLSCAASGFTFVDYEMHWVRQAPGKGLEWVSSISESGTTTYYADSVKGRFTISRDNSKNTLYLQMNSLRAEDTAVYYCAKRRFSASTFDYWGQGTLVTVSS
notes: VH dAb
Does B1 bind [2]?
Result: binds

B2: DOM1m-21-23 (other)
VH: EVQLLESGGGLVQPGGSLRLSCAASGFTFNRYSMGWLRQAPGKGLEWVSRIDSYGRGTYYEDPVKGRFSISRDNSKNTLYLQMNSLRAEDTAVYYCAKISQFGSNAFDYWGQGTQVTVSS
notes: VH dAb; also called DOM1m-12-23 [sic]
Does B2 bind [3]?
Result: no binding (tested: 2.5 µM)

Does B2 bind [4]?
Result: no binding (tested: 2.5 µM)

Does B2 bind [5]?
Result: no binding (tested: 2.5 µM)

Does B2 bind [6]?
Result: no binding (tested: 2.5 µM)

B3: DOM1h-509 (other)
VH: EVQLLESGGGLVQPGGSLRLSCAASGFTFSQYRMHWVRQAPGKSLEWVSSIDTRGSSTYYADPVKGRFTISRDNSKNTLYLQMNSLRAEDTAVYYCAKAVTMFSPFFDYWGQGTLVTVSS
notes: VH domain antibody (dAb)
Does B3 bind [2]?
Result: binds

B4: DOM1h-543 (other)
VH: EVQLLESGGGLVQPGGSLRLSCAASGFTFMRYRMHWVRQAPGKGLEWVSSIDSNGSSTYYADSVKGRFTISRDNSKNTLYLQMNSLRAEDTAVYYCAKDRTERSPVFDYWGQGTLVTVSS
notes: VH dAb
Does B4 bind [7]?
Result: binds

B5: DMS0135 (bispecific antibody)
chain: EVQLLESGGGLVQPGGSLRLSCAASGFTFFKYSMGWVRQAPGKGLEWVSQISDTADRTYYSHSVKGRFTISRDNSKNTLYLQMNSLRAEDTAVYYCAIYTGRWVPFEYWGQGTLVTVSSASTDIQMTQSPSSLSASVGDRVTITCRASRPIGTTLSWYQQKPGKAPKLLILWNSRLQSGVPSRFSGSGSGTDFTLTISSLQPEDFATYYCAQAGTHPTTFGQGTKVEIKR
notes: anti-TNFR1 dAb / AlbudAb in-line fusion
With B5 as the molecule, how does the Kd [8] read?
Its Kd is 320 pM.

What about the koff [8] of the same molecule?
The koff was 5.7e-05 s⁻¹.

What about the kon [8] of the same molecule?
The kon was 180000 M⁻¹ s⁻¹.

What about the “MRC5 ND50” value [9] of the same molecule?
The value was 1.17 nM.

What about the “L929 ND50” value [10] of the same molecule?
The value was 5.9 nM.

B6: DOM1h-131-511 (other)
VH: EVQLLESGGGLVQPGGSLRLSCAASGFTFAHETMVWVRQAPGKGLEWVSHIPPVGQDPFYADSVKGRFTISRDNSKNTLYLQMNSLRAEDTAVYYCALLPKRGPWFDYWGQGTLVTVSS
notes: also called control dAb
Does B6 bind [11]?
Result: no binding (tested: 2.5 µM)

Does B6 bind [12]?
Result: no binding (tested: 2.5 µM)

Does B6 bind [13]?
Result: no binding (tested: 2.5 µM)

And the “IC50 (read off the curve)” value [14]?
The value was roughly 100 pM.

Does B6 bind [15]?
Result: no binding (tested: 2.5 µM)

What about the “IC50 (read off the curve)” value [16] of the same molecule?
Its value is roughly 100 pM.
